Assay results taken from paper PMC7092895 (Biochemical and Biophysical Research Communications, 2005).

Columns and labels:
Assay in all cases: ELISA
[1] = molecular target: interleukin 6 (IL-6) (Homo sapiens (assumed; ), UniProt P05231)
[2] = molecular target: recombinant SARS-CoV nucleocapsid protein (SCoV-N), His6-tagged (SARS-CoV, strain CUHK-W1, UniProt P59595)
[3] = molecular target: recombinant interleukin 11 (IL-11) (Homo sapiens (assumed; ), UniProt P20809)
recombinant interleukin 11 (IL-11), sequence (P20809 22-199): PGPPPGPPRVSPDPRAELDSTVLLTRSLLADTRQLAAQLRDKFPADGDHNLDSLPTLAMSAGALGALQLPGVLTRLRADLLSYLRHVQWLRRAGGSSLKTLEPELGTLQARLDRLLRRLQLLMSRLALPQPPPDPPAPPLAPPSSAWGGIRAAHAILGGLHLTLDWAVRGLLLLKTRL

recombinant SARS-CoV nucleocapsid protein (SCoV-N), His6-tagged, sequence (P59595 whole entry): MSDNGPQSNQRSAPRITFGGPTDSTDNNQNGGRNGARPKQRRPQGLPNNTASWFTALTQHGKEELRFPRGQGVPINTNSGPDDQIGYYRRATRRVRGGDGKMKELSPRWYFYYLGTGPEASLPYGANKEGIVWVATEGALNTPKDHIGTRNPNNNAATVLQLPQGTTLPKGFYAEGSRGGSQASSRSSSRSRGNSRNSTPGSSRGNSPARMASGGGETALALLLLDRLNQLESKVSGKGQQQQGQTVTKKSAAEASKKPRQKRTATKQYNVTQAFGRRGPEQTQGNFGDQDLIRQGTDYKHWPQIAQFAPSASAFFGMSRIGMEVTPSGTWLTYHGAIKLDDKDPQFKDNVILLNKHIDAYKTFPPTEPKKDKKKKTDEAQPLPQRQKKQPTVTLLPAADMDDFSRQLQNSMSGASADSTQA
interleukin 6 (IL-6), sequence (P05231 30-212): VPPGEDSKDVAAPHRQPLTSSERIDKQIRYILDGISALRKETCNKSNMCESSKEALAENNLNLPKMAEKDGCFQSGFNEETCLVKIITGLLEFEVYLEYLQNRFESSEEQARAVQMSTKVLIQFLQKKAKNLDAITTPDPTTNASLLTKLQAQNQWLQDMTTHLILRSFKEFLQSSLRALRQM

B1: anti-N scFv L9N01 (scFv-phage clone) (scFv, V domains shown)
VH: GEAAAVQGTEVVKPGASVKLSCKASGYIFTSYDIDWVRQTPEQGLEWIGWIFPGEGSTEYNEKFKGRATLSVDKSSSTAYMELTRLTSEDSAVYFCARGDYYRRYFDLWGQGTTVTVSS
VL: DIELTQSPAIMSASPGERVTMTCSASSSIRYIYWYQQKPGSSPRLLIYDTSNVAPGVPFRFSGSGSGTSYSLTINGMEAEDAATYYCQEWSGYPYTFGGGTKLELK
binding result [1]: no binding | binding result [2]: binds | binding result [3]: binds
